Data reported in article PMC8607333, “Real-time kinetic studies of Mycobacterium tuberculosis LexA–DNA interaction” (Bioscience Reports, 2021).
Residue numbers refer to the chain shown, from its start.

T1: LexA RKG/AAA (Mycobacterium tuberculosis, UniProt P9WHR7 1-236, R75A;K76A;G77A)
T1 sequence: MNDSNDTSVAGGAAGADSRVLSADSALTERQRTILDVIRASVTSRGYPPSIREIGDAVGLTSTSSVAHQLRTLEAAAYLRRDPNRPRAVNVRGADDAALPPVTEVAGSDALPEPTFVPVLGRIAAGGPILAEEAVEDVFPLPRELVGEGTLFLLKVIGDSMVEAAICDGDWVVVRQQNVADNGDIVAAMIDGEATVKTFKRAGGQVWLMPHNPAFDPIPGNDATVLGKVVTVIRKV

B1: Mtb LexAΔ24aa (domain or fragment)
chain: SALTERQRTILDVIRASVTSRGYPPSIREIGDAVGLTSTSSVAHQLRTLERKGYLRRDPNRPRAVNVRGADDAALPPVTEVAGSDALPEPTFVPVLGRIAAGGPILAEEAVEDVFPLPRELVGEGTLFLLKVIGDSMVEAAICDGDWVVVRQQNVADNGDIVAAMIDGEATVKTFKRAGGQVWLMPHNPAFDPIPGNDATVLGKVVTVIRKV
notes: also called ∆24aa variant; LexA∆24aa
B2: dnaE2_44mer SOS box, biotinylated (dsDNA)
DNA 1: ACAACTGCGCTGTATCGAACAATTGTTCGATATACTGTGGAATG
DNA 2: CATTCCACAGTATATCGAACAATTGTTCGATACAGCGCAGTTGT
B3: dnaE2 44mer SOS box, 32P end-labeled (dsDNA)
DNA 1: B2 DNA 1
DNA 2: B2 DNA 2
B4: dnaE2 44mer SOS box, non-biotinylated (dsDNA)
DNA 1: B2 DNA 1
DNA 2: B2 DNA 2
B5: Mtb LexAΔ18aa (natural protein)
chain: MNDSNDTSVAGGAAGADSRVLSADSALTERQRTILDVIRASVTSRGYPPSIREIGDAVGLTSTSSVAHQLRTLERKGYLRRDPNRPRAVNVRGPEPTFVPVLGRIAAGGPILAEEAVEDVFPLPRELVGEGTLFLLKVIGDSMVEAAICDGDWVVVRQQNVADNGDIVAAMIDGEATVKTFKRAGGQVWLMPHNPAFDPIPGNDATVLGKVVTVIRKV
notes: also called ∆18aa variant; LexA18aaΔ
B6: Mycobacterium tuberculosis LexA, wild type (natural protein)
chain: T1 sequence with A75R, A76K, A77G
notes: also called Mtb LexA; WT Mtb LexA
B7: Mtb LexA RKG/AAA (natural protein)
chain: T1 sequence
notes: also called RKG/AAA mutant; RKG mutant

Experiments:
SEC = biological target: the molecule itself; assay: SEC
LexA RKG/AAA [1] = biological target: T1, LexA RKG/AAA; assay: BLI; pH 7.5; association up to 600 s; BLI: 10 mM HEPES pH 7.5, 50 mM NaCl, 25 C (pH 4 buffer not stated), 1:1 global fit; […]; conditions: protein: recombinant; tags: 6xHis; chain copies: 2; label: 5' biotin on strand 1; blunt
LexA RKG/AAA [2] = biological target: T1, LexA RKG/AAA; assay: EMSA; 128 nM protein; BLI: 10 mM HEPES pH 7.5, 50 mM NaCl, 25 C (pH 4 buffer not stated), 1:1 global fit; […]; conditions: protein: recombinant; tags: 6xHis; chain copies: 2; label: 32P end label, no biotin; blunt
LexA RKG/AAA [3] = biological target: T1, LexA RKG/AAA; assay: ANS extrinsic fluorescence quench; ANS, 1:2 ratio; no significant quench; BLI: 10 mM HEPES pH 7.5, 50 mM NaCl, 25 C (pH 4 buffer not stated), 1:1 global fit; […]; conditions: protein: recombinant; tags: 6xHis; chain copies: 2; blunt

Binder	stoichiometry N (SEC)	other results
B1	2	
B2		binding result (LexA RKG/AAA [1]): no binding
B3		binding result (LexA RKG/AAA [2]): no binding
B4		binding result (LexA RKG/AAA [3]): no binding
B5	2	
B6	2	
B7	2	
